Results as given in the DeepSol protein solubility set.

Assay: soluble on expression in E. coli; label from the status in PepcDB or PDB records

Sequence | soluble on expression in E. coli
WYPSRPLVTTPSQADIQADQSSPRDLLEYFLSGLGETSLPVIQQQVQRYEQENQGLLIDSSLFAQYVQYKAALSELTLPQASGGLSTQEWWQLHQSLLDLQARYFSAEQQALFAEENRLRELAIEKRRIYEQYGQSEEAQRAWQALLLDQPDFIQRSEATAQLLPQLTQAGQGDTQQRYLARVALVGEQGAQRLAELDDSRATFEQQFQDYYQARAAILVRNELSASEQQTQIQQLREQHFAPEQWRRIDALERLKDN | not soluble
MRGEKRTFEMLTNEVEYQHYRFSFANNPATAAGIFQLAEIELTVVADAPLVDFASNISRAEIGENVQFWDRSLANPTGWQWTFEDGEPATSTNRNPAVTFTSLGAKSVTLVASNDKGSNEKVQEQVVHIWDSQNPWAGYVKPTVTLVAHKPEHEGQIAFSRVMPDIEAVIHDISLQIVKVLYKDVAEAPLFKTVTFETDEYDFPAAKSGTDEDMILMMDVAHLANKAAEGDDALRDEVIGMLWHELTHGYNNSPNSGEYATGDEYHSYLESLANYMRIKAGFHESRRVGIKWVDNWNVDAYEQTSFFLEWVANSHRSVDFIYLFNKAAGDLKEWSFEAAFKSIFGEDKGVSIFWQEYHDAQGIEPPYPTPVDGYRNFAVDEGVSISTNATTVIIPDWDAYEGEDKLIDNNVTKKFNAFIEGTWWLEEHASHLFPINDITNVEVTFELPDAIVLHKYSVTTGNDNPQRDPTLWTISGSVDGEVWTQLDSDNYPSDPERLITFHYDIDDAVTAYKYYQFVFENTQPAGDSIGGDNGRLVQIGEIALLTEELEHHHHHH | not soluble
MAHHHHHHMELLTSVFQRHPPALRLHRELTIALADGDSARAADLASVLATTVQRVVAAEADSSDAATPPEGHANTGHFSQRDIPVAGLEDVEEAVEKTRQTLLREATVRVSSGVARDTGGSAISSEPAAAERSLPFWRDPERLCVTILESMFETEVLGGESQDTLTAAGNRAAEHEAEQVRILDAYLDKEGARWNAQKAAIAKIVLDVTRSLGLTPEDLQAFEGISASAGAGAAAAAGERKLNVLRHSNLVIRGEMPSAPLSSTASECVAEGVETELRALEERMSSLGQPLTPWEVRMARYELQMSKSKMRYVVGVHKELQLALDHSAALRASLREKSTAEVTFTTGTEVFMAEVIRALNEGADAYSANVTAEGAQLTVSNVKAREAVESPVLPFTFMLKGSLWFTTAPSRPPSSSSD | soluble
DIVLTQSPATLSVTPGNSVSLSCRASQSIGNNLHWYQQKSHESPRLLIKYASQSISGIPSRFSGSGSGTDFTLSINSVETEDFGMYFCQQSNSWPYTFGGGTKLEITGGGGSGGGGSGGGGSDIQLQESGPSLVKPSQTLSLTCSVTGDSITSDYWSWIRKFPGNRLEYMGYVSYSGSTYYNPSLKSRISITRDTSKNQYYLDLNSVTTEDTATYYCANWDGDYWGQGTLVTVSAAHHHHHH | soluble
MQNSALKAWLDSSYLSGANQSWIEQLYEDFLTDPDSVDANWRSTFQQLPGTGVKPDQFHSQTREYFRRLAKDASRYSSTISDPDTNVKQVKVLQLINAYRFRGHQHANLDPLGLWQQDKVADLDPSFHDLTEADFQETFNVGSFASGKETMKLGELLEALKQTYCGPIGAEYMHITSTEEKRWIQQRIESGRATFNSEEKKRFLSELTAAEGLERYLGAKFPGAKRFSLEGGDALIPMLKEMIRHAGNSGTREVVLGMAHRGRLNVLVNVLGKKPQDLFDEFAGKHKEHLGTGDVKYHMGFSSDFQTDGGLVHLALAFNPSHLEIVSPVVIGSVRARLDRLDEPSSNKVLPITIHGDAAVTGQGVVQETLNMSKARGYEVGGTVRIVINNQVGFTTSNPLDARSTPYCTDIGKMVQAPIFHVNADDPEAVAFVTRLALDFRNTFKRDVFIDLVCYRRHGHNEADEPSATQPLMYQKIKKHPTPRKIYADKLEQEKVATLEDATEMVNLYRDALDAGDCVVAEWRPMNMHSFTWSPYLNHEWDEEYPNKVEMKRLQELAKRISTVPEAVEMQSRVAKIYADRQAMAAGEKLFDWGGAENLAYATLVDEGIPVRLSGEDSGRGTFFHRHAVIHNQSNGSTYTPLQHIHNGQGAFRVWDSVLSEEAVLAFEYGYATAEPRTLTIWEAQFGDFANGAQVVIDQFISSGEQKWGRMCGLVMLLPHGYEGQGPEHSSARLERYLQLCAEQNMQVCVPSTPAQVYHMLRRQALRGMRRPLVVMSPKSLLRHPLAVSSLEELANGTFLPAIGEIDELDPKGVKRVVMCSGKVYYDLLEQRRKNNQHDVAIVRIEQLYPFPHKAMQEVLQQFAHVKDFVWCQEEPLNQGAWYCSQHHFREVIPFGASLRYAGRPASASPAVGYMSVHQKQQQDLVNDALNVE | soluble
MYKEDTIAAISTPHGAGGVGIIRISGDKAFEIAERIFRGKKDFKLIRSHTINYGKIVNPENGAVLDEVLLSKMEKPKTFTREDVVEINCHGGMVVLKNILELCIKEGARLAEPGEFTKRAFLNGRIDLSQAEAVIDLINSKTNESSKAAISQLEGKLSRKIKDARSKLIELLAHIEVTVDYPEHDIEEITGNMVYEEIGKIKEKLCDIVKSFERGRIIREGIDAVIIGKPNVGKSSLLNELSGKSKAIVTDIPGTTRDIIEEYININGIPLRIIDTAGIRETEDVVEKIGVEKTHRAIDEADLVIMMIDAKRGMDEDDNRILTMLGDKKLIILINKIDLVDEKQINEIESLLKGRKCIRTSVKEGTGISELENAITELFVQGEVSVNEEILLTNIRHKNLIDMAISSIEKAMESIDGSMPLDLVSIDITDAADYLGQITGESVSEDVMHEIFSKFCLGK | not soluble
MTTRRLALFDLDHTLLPLDSDYQWADFLARTGRAGDPAEARRRNDDLMERYNRGELTAEQAAEFMLGLLAAHSPVELAAWHEEFMRDVIRPSLTVQAVDVVRGHLAAGDLCALVTATNSFVTAPIARAFGVQHLIATDPEYRDGRYTGRIEGTPSFREGKVVRVNQWLAGMGLALGDFAESYFYSDSVNDVPLLEAVTRPIAANPSPGLREIAQARGWQVIDLFDHLEDAKS | soluble
MVKLKVEDLEMDKIAPLAPEVSLKMAWNIMRDKNLKSIPVADGNNHLLGMLSTSNITATYMDIWDSNILAKSATSLDNILDTLSAEAQNINEERKVFPGKVVVAAMQAESLKEFISEGDIAIAGDRAEIQAELIELKVSLLIVTGGHTPSKEIIELAKKNNITVITTPHDSFTASRLIVQSLPVDYVMTKDNLVAVSTDDLVEDVKVTMSETRYSNYPVIDENNKVVGSIARFHLISTHKKKLEHHHHHHHH | soluble
MNRKKLAAYGQEFEDDDEEGSSVSKKPTQIHEEIATDEKGKRRFHGAFTGGFSAGYWNTVGSKQGWVPQVFSSSRNERGEQIKQRAEDFMDAEDLGEYGIGNRSIKQTAAFGEGAGQKRKMAWERDTTSISTITQMFEDVVKPVSNSIGVRMLRSMGWREGRGIGLANVKQKQKRGGESSEAQFDREQASKVAPAYEFSNEDALVKQLTPLTGTHGIGYQGLRKTTVLNESYGRTTLALKSGKKNSKGIKGQAFGVGAFEEEDESVYSNYDLSQFDFSLDVAGASEESNLKTQKLVTAFELQPKRLNPRKFYAPPRVPPNFRGDHRPIPMDISKLPQMMKNDVKHMNAEQRAKFLGEDRVNALEIGGKSSKKPTERRSRWDIKANEVEKRDNERGGGEAEEDRDRRQRNRIEFPDEPMRQARFKEFLHYIRRGLPYPQPTDLTVWEWEWEKKEFESKLTSDERGMLPEVQSRAQPLAKTAIAAPIHEMMASKFVKEAGGDLKVGTKDEDKLAAVKMEMFGEKTRQSFDWYPDNLLAKRFNVPHPYPGSDTVGVPALQKTDWKRKDRLADIGGVSATLGLPNTANEIEMRERLLKSRAQRGAEEKKRNQSDDDDEKEYDDKDSDEEEENEAEPNNQKVDKAPKSFFDFIFGDGDGADSDESNSEDEEAEEKERQEILKKREEDLKRRREIVEKKEEENRKRVEKELKELENRDLLRVSKQQEDDDIQIIDETSASSFGPALPPSSKPVLSKTEVLKLLEKNMKKKKKDKKEKEKKKKSKKSKKSKKEKKTKRKHSSSSADDSGDNSDGWEEKK | not soluble
MASSVDEEALHQLYLWVDNIPLSRPKRNLSRDFSDGVLVAEVIKFYFPKMVEMHNYVPANSLQQKLSNWGHLNRKVLKRLNFSVPDDVMRKIAQCAPGVVELVLIPLRQRLEERQRRRKQGAGSLQELAPQDGSGYMDVGKVAFSISPSRLELSFCPSSCHL | not soluble
